Results from the supplement of paper PMC9170038.

Test system: MS2 coat protein
Assay: apparent KD of MS2 coat protein; designed switch direction (-1 OFF switch, 1 ON switch): -1; higher = weaker reporter binding
How it was run: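 Designed RNA switches sharing common flanks were transcribed on Illumina chips by stalled E. coli RNA polymerase. They were titrated with SNAP-549-labelled MS2 coat protein, from 0.7 or 1.5 nM doubling to 3 µM, in Tris-HCl pH 7.5 buffer with KCl, MgCl2, BSA, DTT, tRNA and Tween-20. Titrations ran without input, with 200 uM small-molecule ligand, or with an oligonucleotide input. The apparent KD of each design is the median over its clusters, after curve-fitting of normalised cluster fluorescence.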

[1] = Eterna round: R95, input ligand: FMN 200 uM
[2] = Eterna round: R95, input ligand: microRNA oligo, concentration not stated
[3] = Eterna round: R95, input ligand: none
[4] = input ligand: microRNA oligo, concentration not stated

| Sequence | apparent KD of MS2 coat protein (input ligand: FMN 200 uM) [nM] | apparent KD of MS2 coat protein (input ligand: none) [nM] | apparent KD of MS2 coat protein [1] [nM] | apparent KD of MS2 coat protein [2] [nM] | apparent KD of MS2 coat protein [3] [nM] | apparent KD of MS2 coat protein [4] [nM] |
| --- | --- | --- | --- | --- | --- | --- |
| CCAAGCUUUUUCAAUAACAACAUGAGGAUCACCCAUGUUUAAGCUAUUACUUUUGGGCUCUUUAGUGCUAGUCUUAU [JR_STOV1_Sub038] (Eterna round: R97, puzzle: Sensor, turn-off variant 1) | 18 | 18.2 | – | – | – | – |
| UUUUAGAGAGGAUAUAUAAUGUGAAACAUGAGGAUCACCCAUGUAAUAUUAUGGAUGUAAAUAGAAGGCUCAUUUA [JL-ex5-3.04] (puzzle: Exclusion 5) | – | – | 31.9 | 36.1 | 35.1 | – |
| AGUCAGGCGGUAGGAUAUCCAAACCGAGUGACCCUUUCAUAACAUGAGGAUCACCCAUGUCGGUGGGAGAAGGGCCGUAAGGCA [Mat - Exclusion NG 2 - Mod of JL - D66] (Eterna round: R96, puzzle: Exclusion NG 2) | 127 | 56.6 | – | – | – | 52.8 |
| GUAGGGUCAGGAUAUACGCAGACGGUUUCGUCGGGUUAUCUACAUGAGGAUCACCCAUGUAGAAGGGAUCAUAC [Eternabot (L1) Solution 53] (Eterna round: R97, puzzle: Exclusion 2) | 53.4 | 15.8 | – | – | – | – |
| AAUAACAGAGGAUAUACUAUUUUAUGUGUUUAUUGUUUUGAACAUGAGGAUCACCCAUGUAGAAGGCUGAUUGA [JMF 78] (puzzle: Exclusion 2) | – | – | – | 40.7 | – | – |
| UGAGUGCUGCGAGGAUAUACAUGAGGAUCACCCAUGUAAUCGUGUGAGGCUUUGCCUCACACGAUGUAGAAGGCGCAGUACUCU [JL ENG2 1.09] (Eterna round: R96, puzzle: Exclusion NG 2) | 9.84 | 11.9 | – | – | – | 8.97 |
| AACAUGUCAGGAUAUGUGACAUGGCUCUUCGGAGCAAGAUCACAGAAGGGACAUGAGGAUCACCCAUGUCGAUC [Ex4-3: 28] (puzzle: Exclusion 4) | – | – | – | 32.7 | – | – |
| UGUGUACGAGGAUAUAGAUGGAAUGACAUGAGGAUCACCCAUGUGAUCGAUCUAUUGGGUUUAGAAGGUGUAUAUA [JR_Ex5_Sub047] (Eterna round: R97, puzzle: Exclusion 5) | 27.7 | 34.4 | – | – | – | – |
| GUACUGAAGCUUUGCUUUAGUCGUACAUGAGGAUCACCCAUGUAGGAUAUGGUAGGCUUUGCUUACUAGAAGGACAGAGUGAUC [JL EXNG3 1.26] (Eterna round: R96, puzzle: Exclusion NG 3) | 33.1 | 75.7 | – | – | – | 139 |
| AAGAAGCUGAGAGGAUAUGGAGCCGAAACGGAGCUAGAAGGCUUUGCAGAAAGACAUGAGGAUCACCCAUGUUCAUGUAGAGAA [AK ExNG1-1.3] (Eterna round: R96, puzzle: Exclusion NG 1) | 15.2 | 18.4 | – | – | – | 12.6 |
| UACAUGAGGAUCACCCAUGUUUUGUCGUGUAUGGUAUUUAUCUAGGAUAUCAAUUUGUUUAGUUAUGAGAAGGAGAAUAUUAAU [JMF's solution 71] (Eterna round: R96, puzzle: Exclusion NG 3) | 35.9 | 37.6 | – | – | – | 33.3 |
| UAAAGUAUAUAGGAUAUCUAGCUGGUAACAGCUAGAGAAGGAUGUACAUGAGGAUCACCCAUGUAAAUCAGUGA [Ex6/14-A2] (Eterna round: R97, puzzle: Exclusion 6) | 23.3 | 17.9 | – | – | – | – |
| CAUGUGUAAGGAUAUGACAAUGGUAUCUUCGGAUACCAUUGUCAGAAGGUACAUGAGGAUCACCCAUGUAGAUC [Ex4-3: 16] (puzzle: Exclusion 4) | – | – | – | 48.6 | – | – |
| AAAGAUCAGGUGAGGAUAUACAUAUCGAAAGAUAUGUAGAAGGCACAUGAGGAUCACCCAUGUAUAAGGUUACC [Alacar 2] (Eterna round: R97, puzzle: Brourd's mod of Exclusion 4) | 313 | 52.1 | – | – | – | – |
| GAUUAACAUGAGGAUCACCCAUGUGAGGAUAUGGACUUGCCCACUUACCCUUUAGAGUCUAGAAGGCGCAUUUC [1986#31] (Eterna round: R97, puzzle: Exclusion 1) | 23.1 | 20.9 | – | – | – | – |
| AAAAGGCUAGGAUAUACCAGUGGGUGUAAGAACUCAAAGUUACAUGAGGAUCACCCAUGUAGAAGGAGUAAAAU [Diriti] (puzzle: Exclusion 2) | – | – | – | 16.2 | – | – |
| AGCAUGUAAGGAUAUGCAAGUGGCACGGAUAGUACCAGAAAGCAGAAGGUACAUGAGGAUCACCCAUGUGCUCC [Anenen] (Eterna round: R96, puzzle: Exclusion 4) | 233 | 80.1 | – | – | – | 67.2 |
| UAAUAGUCAGGAUAUACAUGAGGAUCACCCAUGUAGAAAUGAACCUGGGUUCUCCUAGGUAGAAGGGACAAAAG [Geerqu] (puzzle: Exclusion 3) | – | – | 28.7 | 22.7 | 24.1 | – |

| Sequence | apparent KD of MS2 coat protein (input ligand: FMN 200 uM) [nM] | apparent KD of MS2 coat protein (input ligand: none) [nM] | apparent KD of MS2 coat protein [1] [nM] | apparent KD of MS2 coat protein [2] [nM] | apparent KD of MS2 coat protein [3] [nM] | apparent KD of MS2 coat protein [4] [nM] |
| --- | --- | --- | --- | --- | --- | --- |
| UUUUGGCAUGUAGGAUAUGGGUCCGAUUAGGAUUUAGAAGGACAUGAGGAUCACCCAUGUGCCCUUAAUUGGUCUUUUUUUUUU [EXclNG1-LROPPY17] (Eterna round: R96, puzzle: Exclusion NG 1) | 55.8 | 44.4 | – | – | – | 35.3 |
| CCAUUAUAAGGAUAUACAUGAGGAUCACCCAUGUACAGGUUAGUUGUACGUACACCGAGUAGAAGGUAUAGAGG [Eternabot (L1) Solution 21] (Eterna round: R97, puzzle: Exclusion 3) | 62.5 | 63.4 | – | – | – | – |
| AGGGAUAAAGGAUAUACAUGAGGAUCACCCAUGUUGAGGAAGGUUAGAGGUGGCGAUAGUAGAAGGUUAGGUAG [JR_Exclu3_Sub081] (puzzle: Exclusion 3) | – | – | – | 77 | – | – |
| GGUUGGCGAGGAUAUACAUGAGGAUCACCCAUGUGAGAGAAAAGAGUGAGGAAGAAAAGUAGAAGGCGCUGACG [salish99_ex3_r3_006] (puzzle: Exclusion 3) | – | – | 55.9 | 69.8 | 76.1 | – |
| CUCUUGUUAGGAUAUCAAACCGGCGGCGGAGCCACCGGAAGUGAGAAGGGACAUGAGGAUCACCCAUGUAAGAA [Islaariste] (puzzle: Exclusion 4) | – | – | 220 | 60.9 | 67.3 | – |
| AAUACACAUGAGGAUCACCCAUGUUAGGAUAUGAGCGGGCAGACAGACAGACAGACGAUCAGAAGGAAUAGGAA [Excls1-VI] (puzzle: Exclusion 1) | – | – | 25.5 | 30.2 | 28.9 | – |
| AUGCGUGGCUAGGAUAUUGAGGAAUUUAGCCAGCGAGAAGGAGCCACAUGAGGAUCACCCAUGUGGUGAACCUC [jl-ex6-4.60 ViennaUCT mod] (Eterna round: R97, puzzle: Exclusion 6) | 17.7 | 18.5 | – | – | – | – |
| AUAAUGUCAGGAUAUCAGAAGUUUAACCUCGGUUAAACUUCUGAGAAGGGACAUGAGGAUCACCCAUGUGAUUA [E4/3-B2] (Eterna round: R97, puzzle: Exclusion 4) | 68.4 | 950 | – | – | – | – |
| GUAGGGUCAGGAUAUACGGGCGGGAGGAUGUAGUGGAGUUGGUAGAAGGGACAUGAGGAUCACCCAUGUGAGAA [JR_Exclu4_Sub053] (puzzle: Exclusion 4) | – | – | – | 27.3 | – | – |
| UAUUAGCAAGAAAGAUCCCACAUGAGGAUCACCCAUGUGCUCGUCUUAUAAGGUACUGUGACGAAAGUCACGGUACC [Sensor 3, v1 - 89] (puzzle: Sensor v3, turn-off variant 1) | – | – | 25.3 | 101 | 26.4 | – |
| UAAAUGGUGUCAGGAUAUCCUGCAUAGUCUGCUGGAGAAGGGACAUGAGGAUCACCCAUGUAAGCCGGCAUGACUGAAUUCCUC [Atrice] (Eterna round: R96, puzzle: Exclusion NG 1) | 50.7 | 32.2 | – | – | – | 23.3 |
| UUGGAUAAUGUAGGAUAUGCAAGGCGAACCUAAGCAGAAGGACAUGAGGAUCACCCAUGUAAUGCGGUCUGCGUACAGAUCGCA [12th something] (Eterna round: R96, puzzle: Exclusion NG 1) | 79 | 22.1 | – | – | – | 29 |
| CUCAUGUAAGGAUAUUGGCACAUGGAACCUGCUGGUUCUGAUAAGAAGGUACAUGAGGAUCACCCAUGUCCUCG [Eternabot (L2) Solution 89] (Eterna round: R97, puzzle: Exclusion 4) | 48.7 | 47.5 | – | – | – | – |
| GCACUGCGAGGAUAUACAUGAGGAUCACCCAUGUGUCCGCAGCGAUGCGAGUACAAAUGUAGAAGGCGCGUAAA [EX3 #57] (Eterna round: R97, puzzle: Exclusion 3) | 34.1 | 14.3 | – | – | – | – |
| CUGCUCCGUGUAGGAUAUGCAUACUCCCACUAUGCAGAAGGACAUGAGGAUCACCCAUGUAUGUUAUUAUCACGUGUAGCGUAC [Design 16] (Eterna round: R96, puzzle: Exclusion NG 1) | – | – | – | – | – | 21.7 |
| GUAAAACAUGAGGAUCACCCAUGUCAGGAUAUACGAAUCCACCCUAACUGCGUGGAUCGUAGAAGGGACAUAGG [Exclusion 1 (MOD5.1 Esqu)] (Eterna round: R97, puzzle: Exclusion 1) | 17.9 | 44.7 | – | – | – | – |
| ACAUGAGGAUCACCCAUGUCAGGCUGGUCCGCUCCGGCUGUUGAGGAUAUAGCUCGGUGUCCGCGCUAGAAGGUGAGGGCCGGC [Aenatbe mod 32] (Eterna round: R96, puzzle: Exclusion NG 3) | 25.3 | 24.6 | – | – | – | 19.3 |
